# Results as given in publication PMC11366018 (Nature Communications, 2024).
# Residue numbers refer to the chain shown, from its start. “And” between values parts separate entries of the source, which are not always exact repeats. Equal entries are not always repeated.
# B1: H18 (antibody, V domains shown)
# VH: QVQLQESGPGLVKPSETLSLTCTVSGGSVSSGGYFWSWIRQPPGKGLEWIGCIYYSGSTNYNPSLKSRVTISVDTSKDQFSLKLSSVTAADTAVYYCARQLWLRGRFDYWGQGTLVTVSS
# VL: NFMLTQPHSVSESPGKTVTISCTRSSGSIASNYVQWYQQRPGSSPTTVIYEDNQRPSGVPDRFSGSIDSSSNSASLTISGLKTEDEADYYCQSYDSSNVVFGGGTKLTVL
# notes: human IgG1
# B2: R1-26 (antibody, V domains shown)
# VH: EVQLVESGGGLVQPGGSLRLSCAASGFTFSSYWMSWVRQAPGKGLEWVANIKQDGSEKYYVDSVKGRFTISRDNAKNSLYLQMNSLRAEDTAVYYCARGQLGPWVGVDYWGQGTLVTVSS
# VL: B1 VL with R24G, S44A, V99W, K106Q
# B3: S2A4 (antibody, V domains shown)
# VH: EVQLVESGGGLVQPGGSLRLSCAASGFTFSSYWMNWVRQAPGKGLEWVANIKQDGSEKYYVDSVKGRFTISRDNAKNSLFLQMNSLRAEDTAVYYCARVWWLRGSFDYWGQGTLVTVSS
# VL: NFMLTQPHSVSESPGKTVTISCTGSSGSIASNYVQWYQQRPGSAPTTVIYEDNQRPSGVPDRFSGSIDSSSNSASLTISGLKTEDEADYYCQSYDSSNHVVFGGGTKLTVL
# Molecular target: SARS-CoV-2 RBD (WT) (SARS-CoV-2 Wuhan-Hu-1 (wildtype), UniProt P0DTC2)
# Assay: BLI
# Details: both partners purified
Binder,Kd,koff,kon
B1,29.5 nM and 29 nM,0.00931 s⁻¹ and 0.0162 s⁻¹,316000 M⁻¹ s⁻¹ and 560000 M⁻¹ s⁻¹
B2,5.75 nM,0.00291 s⁻¹,507000 M⁻¹ s⁻¹
B3,25.3 nM,0.0096 s⁻¹,380000 M⁻¹ s⁻¹
